One test deals with T1, P4A-bS.
T1 chain: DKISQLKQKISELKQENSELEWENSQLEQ
Nature of the test: two-hybrid library CCNG1.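 Further: natural log of median RNA to DNA barcode read ratio; higher means stronger binding.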

For the next test, the target named is T2, P5A-bS.
T2 chain: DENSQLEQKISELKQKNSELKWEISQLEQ
The experiment in a line: two-hybrid library CCNG1.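 Further: natural log of median RNA to DNA barcode read ratio; higher means stronger binding.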

The next test has as its target T3, P6A-bS.
T3 chain: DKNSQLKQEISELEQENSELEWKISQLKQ
The experiment in a line: two-hybrid library CCNG1.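 Further: natural log of median RNA to DNA barcode read ratio; higher means stronger binding.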

A further test has as its target T4, P7A-bS.
T4 chain: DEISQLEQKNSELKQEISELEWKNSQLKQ
Nature of the test: two-hybrid library CCNG1.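 Further: natural log of median RNA to DNA barcode read ratio; higher means stronger binding.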

The target in another test is T5, P8A-bS.
T5 chain: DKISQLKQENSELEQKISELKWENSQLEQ
Nature of the test: two-hybrid library CCNG1.

For another test, the target named is T6, P9A-bS.
T6 chain: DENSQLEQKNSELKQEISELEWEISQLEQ
Nature of the test: two-hybrid library CCNG1.

A further test deals with T7, 4H2124-AA.
T7 chain: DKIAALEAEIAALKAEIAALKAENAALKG
Nature of the test: two-hybrid library CCmax.

Another test has as its target T8, 4H2165-AA.
T8 chain: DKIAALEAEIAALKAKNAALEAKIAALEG
The experiment in a line: two-hybrid library CCmax. Conditions: mean of both orientations.

For a further test, the target named is T9, 4H2253-AA.
T9 chain: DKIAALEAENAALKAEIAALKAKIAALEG
The experiment in a line: two-hybrid library CCmax. Conditions: mean of both orientations.

The target of the next test is T10, 4H2330-AA.
T10 chain: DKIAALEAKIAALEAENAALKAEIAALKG
The experiment in a line: two-hybrid library CCmax. Conditions: mean of both orientations.

In a further test the target is T11, 4H2343-AA.
T11 chain: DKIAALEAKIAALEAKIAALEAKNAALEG
The experiment in a line: two-hybrid library CCmax. Conditions: mean of both orientations.

Another test concerns the target T12, 4H2466-AA.
T12 chain: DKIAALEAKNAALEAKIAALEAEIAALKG
Nature of the test: two-hybrid library CCmax. The conditions noted are these: mean of both orientations.

The next test concerns the target T13, 4H249-AA.
T13 chain: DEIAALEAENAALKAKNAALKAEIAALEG
Nature of the test: two-hybrid library CCmax. The conditions noted are these: mean of both orientations.

For a further test, the target named is T14, 4H2592-AA.
T14 chain: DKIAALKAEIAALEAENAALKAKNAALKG
The experiment in a line: two-hybrid library CCmax. The conditions noted are these: mean of both orientations.

Another test concerns the target T15, 4H2732-AA.
T15 chain: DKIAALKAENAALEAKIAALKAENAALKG
The experiment in a line: two-hybrid library CCmax. Conditions: mean of both orientations.

For a further test, the target named is T16, 4H2774-AA.
T16 chain: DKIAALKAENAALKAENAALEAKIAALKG
The experiment in a line: two-hybrid library CCmax. Conditions: mean of both orientations.

In the next test the target is T17, 4H2931-AA.
T17 chain: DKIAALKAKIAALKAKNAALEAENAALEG
Nature of the test: two-hybrid library CCmax. Conditions: mean of both orientations.

For another test, the target named is T18, 4H3001-AA.
T18 chain: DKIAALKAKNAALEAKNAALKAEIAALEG
The experiment in a line: two-hybrid library CCmax. The conditions noted are these: mean of both orientations.

Another test deals with T19, 4H3015-AA.
T19 chain: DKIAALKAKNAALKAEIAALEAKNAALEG
Nature of the test: two-hybrid library CCmax.

The target in another test is T20, 4H3073-AA.
T20 chain: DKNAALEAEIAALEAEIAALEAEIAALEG
The experiment in a line: two-hybrid library CCmax.

Another test has as its target T21, 4H3438-AA.
T21 chain: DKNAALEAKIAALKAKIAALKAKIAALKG
Nature of the test: two-hybrid library CCmax. The conditions noted are these: mean of both orientations.

A further test has as its target T22, 4H347-AA.
T22 chain: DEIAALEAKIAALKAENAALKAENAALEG
The experiment in a line: two-hybrid library CCmax. The conditions noted are these: mean of both orientations.

For the next test, the target named is T23, 4H406-AA.
T23 chain: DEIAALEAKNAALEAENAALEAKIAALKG
The experiment in a line: two-hybrid library CCmax. The conditions noted are these: mean of both orientations.

The target of the next test is T24, 4H452-AA.
T24 chain: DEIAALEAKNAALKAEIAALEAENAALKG
Nature of the test: two-hybrid library CCmax. The conditions noted are these: mean of both orientations.

The next test concerns the target T25, 4H56-AA.
T25 chain: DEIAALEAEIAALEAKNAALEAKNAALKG
The experiment in a line: two-hybrid library CCmax. The conditions noted are these: mean of both orientations.

A further test addresses T26, 4H_APH.
T26 chain: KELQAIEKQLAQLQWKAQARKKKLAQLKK
The experiment in a line: two-hybrid library CCmax. The conditions noted are these: mean of both orientations.

For a further test, the target named is T27, 4H_BCR.
T27 chain: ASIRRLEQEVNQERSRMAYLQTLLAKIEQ
The experiment in a line: two-hybrid library CCmax. The conditions noted are these: mean of both orientations.

The next test concerns the target 4H_GCN4. The experiment in a line: two-hybrid library CCmax. Conditions: mean of both orientations.
The next test addresses GCN2_T. Nature of the test: two-hybrid library CCmax.
In a further test the target is T28, 4H2667-bA.
T28 chain: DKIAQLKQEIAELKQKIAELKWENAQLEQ
Nature of the test: two-hybrid library CCNG1.

The next test deals with T29, 4H2697-bA.
T29 chain: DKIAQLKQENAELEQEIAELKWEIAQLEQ
The experiment in a line: two-hybrid library CCNG1.

A further test has as its target T30, 4H2729-bA.
T30 chain: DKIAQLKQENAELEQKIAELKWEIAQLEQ
The experiment in a line: two-hybrid library CCNG1.

In another test the target is T31, 4H3112-bA.
T31 chain: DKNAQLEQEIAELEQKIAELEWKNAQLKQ
The experiment in a line: two-hybrid library CCNG1.

A further test concerns the target T32, 4H3185-bA.
T32 chain: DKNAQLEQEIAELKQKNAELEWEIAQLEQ
Nature of the test: two-hybrid library CCNG1.

A further test has as its target T33, 4H3189-bA.
T33 chain: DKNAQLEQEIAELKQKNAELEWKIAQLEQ
Nature of the test: two-hybrid library CCNG1.

A further test addresses T34, 4H3297-bA.
T34 chain: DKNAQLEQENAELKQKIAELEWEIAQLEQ
Nature of the test: two-hybrid library CCNG1.

A further test deals with T35, 4H331-bA.
T35 chain: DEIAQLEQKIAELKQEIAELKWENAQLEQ
The experiment in a line: two-hybrid library CCNG1.

The target in the next test is T36, 4H3354-bA.
T36 chain: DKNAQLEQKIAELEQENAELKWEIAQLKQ
The experiment in a line: two-hybrid library CCNG1.

Another test concerns the target T37, 4H338-bA.
T37 chain: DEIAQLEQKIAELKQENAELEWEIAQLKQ
The experiment in a line: two-hybrid library CCNG1.

Another test deals with T38, 4H3427-bA.
T38 chain: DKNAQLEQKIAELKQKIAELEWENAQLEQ
Nature of the test: two-hybrid library CCNG1.

A further test deals with T39, 4H3606-bA.
T39 chain: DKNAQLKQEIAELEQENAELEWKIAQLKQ
Nature of the test: two-hybrid library CCNG1.

Another test deals with T40, 4H370-bA.
T40 chain: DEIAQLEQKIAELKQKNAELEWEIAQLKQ
Nature of the test: two-hybrid library CCNG1.

In another test the target is T41, 4H3782-bA.
T41 chain: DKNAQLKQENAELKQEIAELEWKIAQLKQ
The experiment in a line: two-hybrid library CCNG1.

For a further test, the target named is T42, 4H3843-bA.
T42 chain: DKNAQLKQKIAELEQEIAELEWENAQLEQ
The experiment in a line: two-hybrid library CCNG1.

The target in a further test is T43, 4H3855-bA.
T43 chain: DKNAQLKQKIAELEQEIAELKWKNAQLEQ
The experiment in a line: two-hybrid library CCNG1.

The target of a further test is T44, 4H3926-bH.
T44 chain: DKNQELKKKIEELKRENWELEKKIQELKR
The experiment in a line: two-hybrid library CCNG1.

The next test concerns the target T45, 4H4001-bA.
T45 chain: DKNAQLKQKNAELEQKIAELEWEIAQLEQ
The experiment in a line: two-hybrid library CCNG1.

The next test deals with T46, 4H454-bA.
T46 chain: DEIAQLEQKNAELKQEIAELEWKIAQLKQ
Nature of the test: two-hybrid library CCNG1.

The target of another test is T47, 4H462-bA.
T47 chain: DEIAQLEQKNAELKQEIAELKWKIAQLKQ
Nature of the test: two-hybrid library CCNG1.

In another test the target is T48, 4H568-bA.
T48 chain: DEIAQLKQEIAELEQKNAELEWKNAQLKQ
Nature of the test: two-hybrid library CCNG1.

A further test deals with T49, 4H607-bA.
T49 chain: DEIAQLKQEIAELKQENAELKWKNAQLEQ
Nature of the test: two-hybrid library CCNG1.

The next test concerns the target T50, 4H687-bA.
T50 chain: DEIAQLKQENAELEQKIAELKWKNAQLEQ
The experiment in a line: two-hybrid library CCNG1.

For another test, the target named is T51, 4H717-bA.
T51 chain: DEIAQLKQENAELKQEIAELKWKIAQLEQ
The experiment in a line: two-hybrid library CCNG1.

The next test addresses T52, 4H72-bA.
T52 chain: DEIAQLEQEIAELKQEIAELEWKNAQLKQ
Nature of the test: two-hybrid library CCNG1.

The next test addresses T53, 4H754-bA.
T53 chain: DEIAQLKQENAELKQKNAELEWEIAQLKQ
Nature of the test: two-hybrid library CCNG1.

For another test, the target named is T54, 4H797-bA.
T54 chain: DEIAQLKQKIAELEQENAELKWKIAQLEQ
Nature of the test: two-hybrid library CCNG1.

In a further test the target is T55, 4H883-bA.
T55 chain: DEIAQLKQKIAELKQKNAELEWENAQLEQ
The experiment in a line: two-hybrid library CCNG1.

For a further test, the target named is T56, 4H908-bA.
T56 chain: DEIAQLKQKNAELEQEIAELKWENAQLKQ
The experiment in a line: two-hybrid library CCNG1.

In a further test the target is T57, 4H918-bA.
T57 chain: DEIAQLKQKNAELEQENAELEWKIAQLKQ
Nature of the test: two-hybrid library CCNG1.

The target in another test is T58, 4H953-bA.
T58 chain: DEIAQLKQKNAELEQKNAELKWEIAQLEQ
Nature of the test: two-hybrid library CCNG1.

A further test concerns the target T59, 4H967-bA.
T59 chain: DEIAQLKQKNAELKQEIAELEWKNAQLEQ
Nature of the test: two-hybrid library CCNG1.

4H_GCN4, sequence (chain, as listed by the source): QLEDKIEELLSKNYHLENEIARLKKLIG

For the molecule DKISQLKQKISELKQENSELEWENSQLEQ [P4A-bS], the interaction score in the test with P4A-bS was -1.08; with P5A-bS, -0.436; with P6A-bS, -1.51; with P7A-bS, -0.905; with P8A-bS, -0.866; with P9A-bS, -2.

DKIAALEAEIAALKAEIAALKAENAALKG [4H2124-AA]: the interaction score is 1.61 with 4H2124-AA; -1.36 with 4H2165-AA; -1.14 with 4H2253-AA; -1.05 with 4H2330-AA; -0.871 with 4H2343-AA; -1.16 in the test with 4H2466-AA. The interaction score with 4H249-AA was -1.78; with 4H2592-AA, -0.666; in the test with 4H2732-AA it was -1.2; with 4H2774-AA, -1.38; with 4H2931-AA, -1.45; in the test with 4H3001-AA, -1.89. Moreover, the interaction score is -1.19 with 4H3015-AA; 1.36 with 4H3073-AA; -0.0325 in the test with 4H3438-AA; -1.2 with 4H347-AA; -1.71 with 4H406-AA; -1.95 with 4H452-AA. Further, the interaction score with 4H56-AA was -1.73; with 4H_APH, -1.67; with 4H_BCR, -2.09; with 4H_GCN4, -1.93; with GCN2_T, -1.07.

Turning to DKIAQLKQEIAELKQKIAELKWENAQLEQ [4H2667-bA], the interaction score with 4H2667-bA was 0.263; with 4H2697-bA, 0.478; with 4H2729-bA, 0.719; with 4H3112-bA it was 0.96; with 4H3185-bA it was -0.669; in the test with 4H3189-bA it was -0.909. The interaction score with 4H3297-bA is 0.0617; in the test with 4H331-bA, 0.846; in the test with 4H3354-bA, -0.643; with 4H338-bA, 0.164; with 4H3427-bA it was 0.719; with 4H3606-bA it was 0.0163. Also, the interaction score with 4H370-bA was -0.0583; with 4H3782-bA, -0.43; with 4H3843-bA, 1.49; with 4H3855-bA, -0.565; in the test with 4H3926-bH it was -1.75; with 4H4001-bA, 1.02. For the same molecule, the interaction score is 1.25 with 4H454-bA; -0.172 with 4H462-bA; 0.688 with 4H568-bA; -1.24 with 4H607-bA; -1.37 with 4H687-bA; -1.61 in the test with 4H717-bA. For the same molecule, the interaction score with 4H72-bA was 0.976; with 4H754-bA it was -1.06; in the test with 4H797-bA it was -1.09; in the test with 4H883-bA it was -0.985; with 4H908-bA it was -0.691; in the test with 4H918-bA it was -1.68. Moreover, the figures for the interaction score with 4H953-bA, with 4H967-bA and with P4A-bS were -0.966, -1.08 and -1.72, respectively.

These data come from paper PMC10397247.
